Laboratory results reported in patent US20060002925A1 (ZymoGenetics, published 2006).

Tests used:
[1] = target: T1, human ZcytoR14 (human, UniProt Q8NAC3 21-791); test: cell-based or functional assay
T1 sequence: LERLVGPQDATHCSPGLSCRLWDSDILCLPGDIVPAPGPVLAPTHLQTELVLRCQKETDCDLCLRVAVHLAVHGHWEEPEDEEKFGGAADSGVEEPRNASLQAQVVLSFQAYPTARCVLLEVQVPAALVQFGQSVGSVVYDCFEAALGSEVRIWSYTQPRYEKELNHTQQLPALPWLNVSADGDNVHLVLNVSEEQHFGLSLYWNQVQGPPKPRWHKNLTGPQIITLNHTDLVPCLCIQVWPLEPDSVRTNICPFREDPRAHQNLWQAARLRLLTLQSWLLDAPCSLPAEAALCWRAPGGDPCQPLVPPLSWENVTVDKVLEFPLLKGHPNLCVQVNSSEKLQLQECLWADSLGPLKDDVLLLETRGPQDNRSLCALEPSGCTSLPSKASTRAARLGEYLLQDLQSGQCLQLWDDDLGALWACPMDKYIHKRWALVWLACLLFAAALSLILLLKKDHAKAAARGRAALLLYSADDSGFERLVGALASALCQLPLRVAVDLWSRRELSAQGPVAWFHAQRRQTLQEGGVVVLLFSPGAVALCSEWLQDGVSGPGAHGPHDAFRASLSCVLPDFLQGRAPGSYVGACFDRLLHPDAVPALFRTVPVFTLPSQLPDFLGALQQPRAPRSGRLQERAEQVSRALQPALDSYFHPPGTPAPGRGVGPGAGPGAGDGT

[2] = target: T2, human IL-17 receptor (human, UniProt Q96F46 33-320); test: cell-based or functional assay
T2 sequence: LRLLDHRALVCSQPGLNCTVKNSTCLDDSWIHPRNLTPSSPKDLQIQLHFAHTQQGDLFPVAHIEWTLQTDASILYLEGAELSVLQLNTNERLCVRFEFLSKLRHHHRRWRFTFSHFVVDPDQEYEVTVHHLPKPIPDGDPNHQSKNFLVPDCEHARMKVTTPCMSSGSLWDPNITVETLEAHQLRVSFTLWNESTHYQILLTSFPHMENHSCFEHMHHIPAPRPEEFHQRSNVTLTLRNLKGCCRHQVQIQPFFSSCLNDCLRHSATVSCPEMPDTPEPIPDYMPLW

B1: human IL-17F (ligand)
chain: RKIPKVGHTFFQKPESCPPVPGGSMKLDIGIINENQRVSMSRNIESRSTSPWNYTVTWDPNRYPSEVVQAQCRNLGCINAQGKEDISMNSVPIQQETLVVRRKHQGCSVSFQLEKVLVTVGCTCVTPVIHHVQ
modifications: biotinylated (Example 10) or 125I-radiolabeled by the iodobead method (Example 11) when used as tracer; unlabeled as cold competitor
EC50 of ap1/nfkb luciferase activation in the hIL-17RCX1 recombinant line [1]: 0.61 ng/mL
fold more potent EC50 in the recombinant line against the parental line [1]: 17 fold
EC50 of ap1/nfkb luciferase activation in nih3t3/kz142.8/IL-17R cells [2]: 12.4 ng/mL
